The test system of data set [1] is NCCCCN. Nature of the data set: purified protein. The note with it: 10 mM carbamylphosphate, 50 mM Tris-HCl pH 7, 37°C, 230YGLY233 replaced by VSMG.
Data set [2] has as its system NCCCCN. Nature of the data set: carbamylputrescine production, colorimetric (Archibald reaction); hyperbolic fit. Type of data set: biochemical, Enterococcus faecalis. The note with it: 10 mM carbamylphosphate, 50 mM Tris-HCl pH 7, 37°C.

Here are results for two substances from publication PMC3282769, “New Insight into the Transcarbamylase Family: The Structure of Putrescine Transcarbamylase, a Key Catalyst for Fermentative Utilization of Agmatine” (PLoS ONE, 2012).

On to “PTC (putrescine transcarbamylase) (Enterococcus faecalis V583; G231S/L232M/Y230V/Y233G)”, for which the Michaelis constant (Km) in the data set with NCCCCN [1] came to 32.9 ± 8.8 mM.
“PTC (putrescine transcarbamylase) (Enterococcus faecalis V583)”: in the data set on NCCCCN [2], the Michaelis constant (Km) was determined as 1.41 ± 0.22 mM.

For orientation: Km means the concentration of substrate that gives half-maximal velocity.
